According to paper PMC6469932 (Biochemistry, 2018):

What was measured:
[1] = substrate: O=C(O)C(=O)CO; assay: purified protein; type: biochemical, Sinorhizobium meliloti; settings: 0.4 mM NADPH, 150 mM NaCl, 150 mM Tris-HCl pH 7.5, 25 °C
[2] = substrate: CC(=O)C(=O)O; assay: purified protein; type: biochemical, Sinorhizobium meliloti; settings: 0.4 mM NADPH, 150 mM NaCl, 150 mM Tris-HCl pH 7.5, 25 °C
[3] = substrate: O=C(O)C(=O)Cc1ccccc1; assay: purified protein; type: biochemical, Sinorhizobium meliloti; settings: 0.4 mM NADPH, 150 mM NaCl, 150 mM Tris-HCl pH 7.5, 25 °C
[4] = target: the molecule itself; assay: crystal structure
[5] = substrate: O=C(O)C(=O)[C@@H](O)[C@H](O)[C@H](O)CO; assay: purified protein; type: biochemical, Sinorhizobium meliloti; settings: 0.4 mM NADPH, 150 mM NaCl, 150 mM Tris-HCl pH 7.5, 25 °C

B1: SmGhrA, glyoxylate/hydroxypyruvate reductase of subfamily GHRA from Sinorhizobium meliloti 1021 (enzyme, UniProt Q92T34 1-319, looked up)
chain: MPAKSPVIVDLKFIPEEVEAALAGAFPGREVIDLADPAHQERDLSGIDYAVVWKSAPDLFSRAPDLKVVFSGGAGVDHVLTLPGLPDVPLVRFVDRTLTTRMSEWVMMQCLLHLRQHRAYEALAKKHEWRDLSQPEAADVTVGIMGMGVLGQDAARKLAAMGFKVIGWSRSKRVIEGVETYDAAGLDAFLGRTDFLVGLLPLTPDTRGIFNAALFAKLSRNGPFGAPVFINAGRGGSQVEADILECLDSGVLGGASLDVFEREPLSPESRFWDMPNVYVTPHVAASSDVRALFVHVEHQIARFESGLPLEHVVDKVAGY
For B1, the K0.5 [1] was 9.35 ± 0.86 mM, the kcat/Km [1] was 1200 ± 61 M⁻¹ s⁻¹ and the K0.5 [2] was 9.69 ± 0.80 mM. It also gave a kcat/Km [2] of 57.3 ± 3.4 M⁻¹ s⁻¹, a K0.5 [3] of 6.58 ± 0.73 mM and a kcat/Km [3] of 267 ± 18 M⁻¹ s⁻¹. The “stoichiometry N” value [4] was 2.

B2: SmGhrB, glyoxylate/hydroxypyruvate reductase of subfamily GHRB from Sinorhizobium meliloti 1021 (enzyme, UniProt Q92LZ4 1-322, looked up)
chain: MSRPRILVPGKINPRVLERLPEMFETVRIERADAALVTADMRDVSGIAVSGKLPVPLMDAFPSLEIVANFGVGYDGVDVSRAAARGIVVTNTPDVLTEEVADTAIGLLLNTLRLLPQAEQWLRQGRWVREGAFPLSPLSLRGRTVGLFGLGRIGLAIARRLEAFGVSIAYHTRTPREGLGFTYHPTLVGMAEAVDTLIVIVPGTASTLKAVNADVLSALGPKGVLINVGRGSTVDEAALVTALQNGTIAGAGLDVFENEPNVPEALLSFPNVSLLPHVASASVVTRNAMSDLVVDNLKAWFSTGEALTPVAETPFRRRAIQN
B2 showed a K0.5 [5] of 11.0 ± 2.0 mM, a kcat/Km [5] of 935 ± 84 M⁻¹ s⁻¹ and a K0.5 [3] of 5.59 ± 0.92 mM. For the same protein, the kcat/Km [3] was 372 ± 38 M⁻¹ s⁻¹ and the “stoichiometry N” value [4] was 2.
